Data on 1 protein can be found in publication PMC2757162 (Journal of molecular biology, 2008).

The data set deals with the molecule itself.

B1: Herpes simplex virus type 1 SSB/recombination protein ICP8 (natural protein)
chain: METKPKTATTIKVPPGPLGYVYARACPSEGIELLALLSARSGDSDVAVAPLVVGLTVESGFEANVAVVVGSRTTGLGGTAVSLKLTPSHYSSSVYVFHGGRHLDPSTQAPNLTRLCERARRHFGFSDYTPRPGDLKHETTGEALCERLGLDPDRALLYLVVTEGFKEAVCINNTFLHLGGSDKVTIGGAEVHRIPVYPLQLFMPDFSRVIAEPFNANHRSIGEKFTYPLPFFNRPLNRLLFEAVVGPAAVALRCRNVDAVARAAAHLAFDENHEGAALPADITFTAFEASQGKTPRGGRDGGGKGAAGGFEQRLASVMAGDAALALESIVSMAVFDEPPTDISAWPLFEGQDTAAARANAVGAYLARAAGLVGAMVFSTNSALHLTEVDDAGPADPKDHSKPSFYRFFLVPGTHVAANPQVDREGHVVPGFEGRPTAPLVGGTQEFAGEHLAMLCGFSPALLAKMLFYLERCDGAVIVGRQEMDVFRYVADSNQTDVPCNLCTFDTRHACVHTTLMRLRARHPKFASAARGAIGVFGTMNSMYSDCDVLGNYAAFSALKRADGSETARTIMQETYRAATERVMAELETLQYVDQAVPTAMGRLETIITNREALHTVVNNVRQVVDREVEQLMRNLVEGRNFKFRDGLGEANHAMSLTLDPYACGPCPLLQLLGRRSNLAVYQDLALSQCHGVFAGQSVEGRNFRNQFQPVLRRRVMDMFNNGFLSAKTLTVALSEGAAICAPSLTAGQTAPAESSFEGDVARVTLGFPKELRVKSRVLFAGASANASEAAKARVASLQSAYQKPDKRVDILLGPLGFLLKQFHAAIFPNGKPPGSNQPNPQWFWTALQRNQLPARLLSREDIETIAFIKKFSLDYGAINFINLAPNNVSELAMYYMANQILRYCDHSTYFINTLTAIIAGSRRPPSVQAAAAWSAQGGAGLEAGARALMDAVDAHPGAWTSMFASCNLLRPVMAARPMVVLGLSISKYYGMAGNDRVFQAGNWASLMGGKNACPLLIFDRTRKFVLACPRAGFVCAASSLGGGAHESSLCEQLRGIISEGGAAVASSVFVATVKSLGPRTQQLQIEDWLALLEDEYLSEEMMELTARALERGNGEWSTDAALEVAHEAEALVSQLGNAGEVFNFGDFGCEDDNATPFGGPGAPGPAFAGRKRAFHGDDPFGEGPPDKKGDLTLDML
With B1, the binding result was “binds”.
